Reference: IntAct's records for PubMed 25910212

B1: Sulfotransferase 2B1 (Homo sapiens), O00204 (parent)
chain: MDGPAEPQIPGLWDTYEDDISEISQKLPGEYFRYKGVPFPVGLYSLESISLAENTQDVRDDDIFIITYPKSGTTWMIEIICLILKEGDPSWIRSVPIWERAPWCETIVGAFSLPDQYSPRLMSSHLPIQIFTKAFFSSKAKVIYMGRNPRDVVVSLYHYSKIAGQLKDPGTPDQFLRDFLKGEVQFGSWFDHIKGWLRMKGKDNFLFITYEELQQDLQGSVERICGFLGRPLGKEALGSVVAHSTFSAMKANTMSNYTLLPPSLLDHRRGAFLRKGVCGDWKNHFTVAQSEAFDRAYRKQMRGMPTFPWDEDPEEDGSPDPEPSPEPEPKPSLEPNTSLEREPRPNSSPSPSPGQASETPHPRPS
B2: PiggyBac transposable element-derived protein 1 (Homo sapiens), Q96JS3 (parent)
chain: MYEALPGPAPENEDGLVKVKEEDPTWEQVCNSQEGSSHTQEICRLRFRHFCYQEAHGPQEALAQLRELCHQWLRPEMHTKEQIMELLVLEQFLTILPKELQPCVKTYPLESGEEAVTVLENLETGSGDTGQQASVYIQGQDMHPMVAEYQGVSLECQSLQLLPGITTLKCEPPQRPQGNPQEVSGPVPHGSAHLQEKNPRDKAVVPVFNPVRSQTLVKTEEETAQAVAAEKWSHLSLTRRNLCGNSAQETVMSLSPMTEEIVTKDRLFKAKQETSEEMEQSGEASGKPNRECAPQIPCSTPIATERTVAHLNTLKDRHPGDLWARMHISSLEYAAGDITRKGRKKDKARVSELLQGLSFSGDSDVEKDNEPEIQPAQKKLKVSCFPEKSWTKRDIKPNFPSWSALDSGLLNLKSEKLNPVELFELFFDDETFNLIVNETNNYASQKNVSLEVTVQEMRCVFGVLLLSGFMRHPRREMYWEVSDTDQNLVRDAIRRDRFELIFSNLHFADNGHLDQKDKFTKLRPLIKQMNKNFLLYAPLEEYYCFDKSMCECFDSDQFLNGKPIRIGYKIWCGTTTQGYLVWFEPYQEESTMKVDEDPDLGLGGNLVMNFADVLLERGQYPYHLCFDSFFTSVKLLSALKKKGVRATGTIRENRTEKCPLMNVEHMKKMKRGYFDFRIEENNEIILCRWYGDGIISLCSNAVGIEPVNEVSCCDADNEEIPQISQPSIVKVYDECKEGVAKMDQIISKYRVRIRSKKWYSILVSYMIDVAMNNAWQLHRACNPGASLDPLDFRRFVAHFYLEHNAHLSD
partner: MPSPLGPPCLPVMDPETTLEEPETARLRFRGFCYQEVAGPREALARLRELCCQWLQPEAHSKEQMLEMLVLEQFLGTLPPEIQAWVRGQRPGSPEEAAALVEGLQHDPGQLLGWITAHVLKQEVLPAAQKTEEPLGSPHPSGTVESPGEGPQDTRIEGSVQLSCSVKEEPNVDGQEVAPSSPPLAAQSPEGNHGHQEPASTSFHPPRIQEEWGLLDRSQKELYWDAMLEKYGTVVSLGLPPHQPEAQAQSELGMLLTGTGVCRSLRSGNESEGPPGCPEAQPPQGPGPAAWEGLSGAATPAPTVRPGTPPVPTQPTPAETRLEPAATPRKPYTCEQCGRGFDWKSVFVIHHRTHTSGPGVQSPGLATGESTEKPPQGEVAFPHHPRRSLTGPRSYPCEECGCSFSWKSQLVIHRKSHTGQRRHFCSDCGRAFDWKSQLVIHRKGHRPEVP
B3: Carbonic anhydrase-related protein (Homo sapiens), P35219 (parent)
chain: MADLSFIEDTVAFPEKEEDEEEEEEGVEWGYEEGVEWGLVFPDANGEYQSPINLNSREARYDPSLLDVRLSPNYVVCRDCEVTNDGHTIQVILKSKSVLSGGPLPQGHEFELYEVRFHWGRENQRGSEHTVNFKAFPMELHLIHWNSTLFGSIDEAVGKPHGIAIIALFVQIGKEHVGLKAVTEILQDIQYKGKSKTIPCFNPNTLLPDPLLRDYWVYEGSLTIPPCSEGVTWILFRYPLTISQLQIEEFRRLRTHVKGAELVEGCDGILGDNFRPTQPLSDRVIRAAFQ
partner: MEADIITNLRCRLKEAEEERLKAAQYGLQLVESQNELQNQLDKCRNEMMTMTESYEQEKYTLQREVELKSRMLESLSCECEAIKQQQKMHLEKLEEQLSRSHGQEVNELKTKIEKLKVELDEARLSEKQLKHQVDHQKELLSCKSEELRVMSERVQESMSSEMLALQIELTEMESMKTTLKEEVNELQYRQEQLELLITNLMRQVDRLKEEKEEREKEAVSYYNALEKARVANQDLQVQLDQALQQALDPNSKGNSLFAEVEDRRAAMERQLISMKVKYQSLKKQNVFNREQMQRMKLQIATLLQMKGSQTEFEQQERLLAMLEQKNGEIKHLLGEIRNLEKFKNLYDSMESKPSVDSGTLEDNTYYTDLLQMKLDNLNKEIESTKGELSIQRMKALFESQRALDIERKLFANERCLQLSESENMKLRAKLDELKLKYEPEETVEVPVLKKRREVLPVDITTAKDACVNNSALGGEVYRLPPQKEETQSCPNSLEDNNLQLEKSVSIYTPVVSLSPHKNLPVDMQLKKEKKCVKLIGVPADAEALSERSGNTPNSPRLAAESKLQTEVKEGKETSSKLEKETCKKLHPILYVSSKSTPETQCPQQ
B4: Tyrosine aminotransferase (Homo sapiens), P17735 (parent)
chain: MDPYMIQMSSKGNLPSILDVHVNVGGRSSVPGKMKGRKARWSVRPSDMAKKTFNPIRAIVDNMKVKPNPNKTMISLSIGDPTVFGNLPTDPEVTQAMKDALDSGKYNGYAPSIGFLSSREEIASYYHCPEAPLEAKDVILTSGCSQAIDLCLAVLANPGQNILVPRPGFSLYKTLAESMGIEVKLYNLLPEKSWEIDLKQLEYLIDEKTACLIVNNPSNPCGSVFSKRHLQKILAVAARQCVPILADEIYGDMVFSDCKYEPLATLSTDVPILSCGGLAKRWLVPGWRLGWILIHDRRDIFGNEIRDGLVKLSQRILGPCTIVQGALKSILCRTPGEFYHNTLSFLKSNADLCYGALAAIPGLRPVRPSGAMYLMVGIEMEHFPEFENDVEFTERLVAEQSVHCLPATCFEYPNFIRVVITVPEVMMLEACSRIQEFCEQHYHCAEGSQEECDK

Variants of: B1
Settings: with st1b1_human SULT1B1, O43704
Chain of st1b1_human SULT1B1, O43704 (O43704 whole entry): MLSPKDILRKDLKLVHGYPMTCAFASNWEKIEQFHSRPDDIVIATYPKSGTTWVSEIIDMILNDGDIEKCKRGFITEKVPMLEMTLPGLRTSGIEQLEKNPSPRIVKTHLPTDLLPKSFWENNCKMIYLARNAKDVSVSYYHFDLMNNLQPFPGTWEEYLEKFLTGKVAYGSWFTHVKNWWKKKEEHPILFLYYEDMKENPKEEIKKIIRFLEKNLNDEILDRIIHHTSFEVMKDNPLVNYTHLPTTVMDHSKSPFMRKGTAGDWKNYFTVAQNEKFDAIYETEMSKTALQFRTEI

Row | effect of a mutation on the interaction | Variant
1 | with no effect | MDGPAEPQIPGLWDTYEDDISEISQKLPGEYFRYKGVPFPVGLYSLESISLAENTQDVRDDDIFIITYPKSGTTWMIEIICLILKEGDPSWIRSVPIWERAPWCETIVGAFSLPDQYSPRLMSSHLPIQIFTKAFFSSKAKVIYMGRNPRDVVVSLYHYSKIAGQLKDPGTPDQFLRDFLKGEVQFGSWFDHIKGWLRMKGKDNFLFITYEELQQDLQGSVERICGFLGHPLGKEALGSVVAHSTFSAMKANTMSNYTLLPPSLLDHRRGAFLRKGVCGDWKNHFTVAQSEAFDRAYRKQMRGMPTFPWDEDPEEDGSPDPEPSPEPEPKPSLEPNTSLEREPRPNSSPSPSPGQASETPHPRPS [R230H]
2 | with no effect | MDGPAEPQIPGLWDTYEDDISEISQKLPGEYFRYKGVPFPVGLYSLESISLAENTQDVRDDDIFIITYPKSGTTWMIEIICLILKEGDPSWIRSVPIWERAPWCETIVGAFSLPDQYSPRLMSSHLPIQIFTKAFFSSKAKVIYMGRNPRDVVVSLYHYSKIAGQLKDPGTPDQFLRDFLKGEVQFGSWFNHIKGWLRMKGKDNFLFITYEELQQDLQGSVERICGFLGRPLGKEALGSVVAHSTFSAMKANTMSNYTLLPPSLLDHRRGAFLRKGVCGDWKNHFTVAQSEAFDRAYRKQMRGMPTFPWDEDPEEDGSPDPEPSPEPEPKPSLEPNTSLEREPRPNSSPSPSPGQASETPHPRPS [D191N]

Variants of: B1
Settings: with st1a1_human SULT1A1, P50225
Chain of st1a1_human SULT1A1, P50225 (P50225 whole entry, looked up): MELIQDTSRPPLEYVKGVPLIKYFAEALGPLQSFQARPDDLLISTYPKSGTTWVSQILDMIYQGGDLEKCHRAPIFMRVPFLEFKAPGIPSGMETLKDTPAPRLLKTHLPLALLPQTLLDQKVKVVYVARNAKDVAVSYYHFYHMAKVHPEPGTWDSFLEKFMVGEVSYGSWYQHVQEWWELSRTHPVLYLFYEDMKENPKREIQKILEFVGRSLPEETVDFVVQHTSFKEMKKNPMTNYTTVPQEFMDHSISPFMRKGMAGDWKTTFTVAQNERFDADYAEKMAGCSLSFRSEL

Row | effect of a mutation on the interaction | Variant
3 | with no effect | MDGPAEPQIPGLWDTYEDDISEISQKLPGEYFRYKGVPFPVGLYSLESISLAENTQDVRDDDIFIITYPKSGTTWMIEIICLILKEGDPSWIRSVPIWERAPWCETIVGAFSLPDQYSPRLMSSHLPIQIFTKAFFSSKAKVIYMGRNPRDVVVSLYHYSKIAGQLKDPGTPDQFLRDFLKGEVQFGSWFDHIKGWLRMKGKDNFLFITYEELQQDLQGSVERICGFLGHPLGKEALGSVVAHSTFSAMKANTMSNYTLLPPSLLDHRRGAFLRKGVCGDWKNHFTVAQSEAFDRAYRKQMRGMPTFPWDEDPEEDGSPDPEPSPEPEPKPSLEPNTSLEREPRPNSSPSPSPGQASETPHPRPS [R230H]
4 | with no effect | MDGPAEPQIPGLWDTYEDDISEISQKLPGEYFRYKGVPFPVGLYSLESISLAENTQDVRDDDIFIITYPKSGTTWMIEIICLILKEGDPSWIRSVPIWERAPWCETIVGAFSLPDQYSPRLMSSHLPIQIFTKAFFSSKAKVIYMGRNPRDVVVSLYHYSKIAGQLKDPGTPDQFLRDFLKGEVQFGSWFNHIKGWLRMKGKDNFLFITYEELQQDLQGSVERICGFLGRPLGKEALGSVVAHSTFSAMKANTMSNYTLLPPSLLDHRRGAFLRKGVCGDWKNHFTVAQSEAFDRAYRKQMRGMPTFPWDEDPEEDGSPDPEPSPEPEPKPSLEPNTSLEREPRPNSSPSPSPGQASETPHPRPS [D191N]

Variants of: B2
Settings: with zn446_human ZNF446, Q9NWS9

Row | effect of a mutation on the interaction | Variant
5 | with no effect | P256L
6 | with no effect | I678V
7 | with no effect | Q248E
8 | with no effect | G244E
9 | with no effect | H806D

Variants of: B3
Settings: with spdly_human SPDL1, Q96EA4

Row | effect of a mutation on the interaction | Variant
10 | disrupting interaction strength | MADLSFIEDTVAFPEKEEDEEEEEEGVEWGYEEGVEWGLVFPDANGEYQSPINLNSREARYDPSLLDVRLSPNYVVCRDCEVTNDGHTIQVILKSKSVLPGGPLPQGHEFELYEVRFHWGRENQRGSEHTVNFKAFPMELHLIHWNSTLFGSIDEAVGKPHGIAIIALFVQIGKEHVGLKAVTEILQDIQYKGKSKTIPCFNPNTLLPDPLLRDYWVYEGSLTIPPCSEGVTWILFRYPLTISQLQIEEFRRLRTHVKGAELVEGCDGILGDNFRPTQPLSDRVIRAAFQ [S100P]

Variants of: B4
Settings: with UBE3A

Row | effect of a mutation on the interaction | Variant
11 | with no effect | MDPYMIQMSSKGNLPSILDVHVNVGGRSSVPGKMKGRKARWSVRPSDMAKKTFNPIRAIVDNMKVKPNPNKTMISLSIGDPTVFGNLPTDPEVTQAMKDALDSGKYNGYAPSIGFLSSWEEIASYYHCPEAPLEAKDVILTSGCSQAIDLCLAVLANPGQNILVPRPGFSLYKTLAESMGIEVKLYNLLPEKSWEIDLKQLEYLIDEKTACLIVNNPSNPCGSVFSKRHLQKILAVAARQCVPILADEIYGDMVFSDCKYEPLATLSTDVPILSCGGLAKRWLVPGWRLGWILIHDRRDIFGNEIRDGLVKLSQRILGPCTIVQGALKSILCRTPGEFYHNTLSFLKSNADLCYGALAAIPGLRPVRPSGAMYLMVGIEMEHFPEFENDVEFTERLVAEQSVHCLPATCFEYPNFIRVVITVPEVMMLEACSRIQEFCEQHYHCAEGSQEECDK [R119W]

Variants of: B4
Settings: with glna_human GLUL

Row | effect of a mutation on the interaction | Variant
12 | with no effect | MDPYMIQMSSKGNLPSILDVHVNVGGRSSVPGKMKGRKARWSVRPSDMAKKTFNPIRAIVDNMKVKPNPNKTMISLSIGDPTVFGNLPTDPEVTQAMKDALDSGKYNGYAPSIGFLSSWEEIASYYHCPEAPLEAKDVILTSGCSQAIDLCLAVLANPGQNILVPRPGFSLYKTLAESMGIEVKLYNLLPEKSWEIDLKQLEYLIDEKTACLIVNNPSNPCGSVFSKRHLQKILAVAARQCVPILADEIYGDMVFSDCKYEPLATLSTDVPILSCGGLAKRWLVPGWRLGWILIHDRRDIFGNEIRDGLVKLSQRILGPCTIVQGALKSILCRTPGEFYHNTLSFLKSNADLCYGALAAIPGLRPVRPSGAMYLMVGIEMEHFPEFENDVEFTERLVAEQSVHCLPATCFEYPNFIRVVITVPEVMMLEACSRIQEFCEQHYHCAEGSQEECDK [R119W]
